From publication PMC8786727, “Oligomerization of the FliF Domains Suggests a Coordinated Assembly of the Bacterial Flagellum MS Ring” (Frontiers in Microbiology, 2021)

B1: S. Typhimurium FliF RBM2 (FliF_(124–229)) (domain or fragment)
chain: SQFSEQVNYQRALEGELARTIETLGPVKSARVHLAMPKPSLFVREQKSPSASVTVTLEPGRALDEGQISAVVHLVSSAVAGLPPGNVTLVDQSGHLLTQSNTSGRD
notes: FliF, Salmonella enterica serovar Typhimurium, residues 124-229 (RBM2 and linker L2); Made by site-directed mutagenesis from the FliF 50-438 pET-28a construct; also called RBM2 + L2; source: E. coli BL21 DE3, purified (Ni-NTA, SEC on Superdex 200); copies: 23
B2: S. Typhimurium FliF RBM3 (FliF_(231–438)) (domain or fragment)
chain: NDAQLKFANDVESRIQRRIEAILSPIVGNGNVHAQVTAQLDFANKEQTEEHYSPNGDASKATLRSRQLNISEQVGAGYPGGVPGALSNQPAPPNEAPIATPPTNQQNAQNTPQTSTSTNSNSAGPRSTQRNETSNYEVDRTIRHTKMNVGDIERLSVAVVVNYKTLADGKPLPLTADQMKQIEDLTREAMGFSDKRGDTLNVVNSPFS
notes: FliF, Salmonella enterica serovar Typhimurium, residues 231-438 (RBM3); Made by site-directed mutagenesis from the FliF 50-438 pET-28a construct; Forms rings; the number of subunits of this construct was not measured; source: E. coli BL21 DE3, purified (Ni-NTA, SEC on Superose 6)
B3: S. Typhimurium FliF RBM1-RBM2-RBM3 (FliF_(50–438)) (domain or fragment)
chain: DYRTLFSNLSDQDGGAIVAQLTQMNIPYRFANGSGAIEVPADKVHELRLRLAQQGLPKGGAVGFELLDQEKFGISQFSEQVNYQRALEGELARTIETLGPVKSARVHLAMPKPSLFVREQKSPSASVTVTLEPGRALDEGQISAVVHLVSSAVAGLPPGNVTLVDQSGHLLTQSNTSGRDLNDAQLKFANDVESRIQRRIEAILSPIVGNGNVHAQVTAQLDFANKEQTEEHYSPNGDASKATLRSRQLNISEQVGAGYPGGVPGALSNQPAPPNEAPIATPPTNQQNAQNTPQTSTSTNSNSAGPRSTQRNETSNYEVDRTIRHTKMNVGDIERLSVAVVVNYKTLADGKPLPLTADQMKQIEDLTREAMGFSDKRGDTLNVVNSPFS
notes: FliF (flagellar M-ring protein), Salmonella enterica serovar Typhimurium, residues 50-438 (RBM1, RBM2 and RBM3, without the two trans-membrane helices); full length is 1-560; Synthetic gene in pET-28a; 33-fold symmetry seen in top-view cryo-EM 2D classes; the rings also stick together (~10 MDa by SEC-MALS); also called StFliF_(50–438); periplasmic region of FliF; source: E. coli BL21 DE3, …

Legend:
[1] = target: the molecule itself; assay: cryo-EM 2D classification; protein at 10 mg/ml in 50 mM Hepes pH 9.0, 150 mM NaCl; symmetry read from top-view 2D classes; no 3D structure
[2] = target: the molecule itself; assay: SEC; purified protein on Superdex 200 10/300 or Superose 6 10/300; 50 mM Hepes pH 8.0 or 9.0, 500 mM NaCl; oligomeric state from the elution volume

| Protein | stoichiometry N [1] | binding result [2] |
| --- | --- | --- |
| B1 | 23 |  |
| B2 |  | binds |
| B3 | 33 |  |
